Source: the supplement of paper PMC6757056
± gives the standard deviation of the averaged measurements.

B1: library; a variant is named by its letters at N, in order (parent)
chain: GCUGUCACCGGUGUAUUACCCUAGUGGUCGACCGGUCUGAUGAGUCUNNNNNNAGACGAAACAGC

Key:
hypoxanthine [1] = variants of: B1; assay: FACS-Seq fitted mean relative fluorescence mCherry/BFP without ligand (log10 relative fluorescence); ligand: hypoxanthine (xanthine aptamer); higher = higher reporter protein expression; settings: HEK293T, ligand present: no
Summary of the method: (§1)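 The ribozyme switch sat in an mCherry reporter, delivered by lentivirus into HEK293T libraries along with an EF1α-BFP marker. Enriched cells were incubated 48 h with or without ligand, sorted into 6 bins by mCherry/BFP, and bin genomic DNA was PCR-amplified, barcoded and MiSeq-sequenced. Fluorescence equals the fitted normal mean of the bin counts after normalization. Those log10(mCherry/BFP) means were scaled to five spiked-in control ribozymes.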

hypoxanthine [2] = variants of: B1; assay: normalized RNA/DNA level with ligand (relative to sTRSVctl = 100) (log10 (% of sTRSVctl)); ligand: hypoxanthine (xanthine aptamer); higher = less ribozyme self-cleavage, higher mRNA level; settings: ligand concentration (+) RNA-Seq: 5 mM, HEK293T, reporter: mCherry (pCS4076), ligand present: yes
Protocol: (§2)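 Hammerhead (sTRSV) ribozyme switch libraries with a ligand aptamer grafted on stem I and a randomized N4-6 loop II, cloned into the 3' UTR of mCherry and transiently transfected into HEK293T cells; RNA-Seq 72 h post transfection with ligand added 1 h before transfection; RNA read count / plasmid DNA read count normalized to the non-cleaving sTRSVctl (x100), log10; sequences with >100 DNA reads. FACS-Seq: lentiviral library sorted into 6 bins after 48 h ligand, log-normal fit mean of mCherry/BFP scaled to controls. Printed sequences are partial switch sequences.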

hypoxanthine [3] = variants of: B1; assay: normalized RNA/DNA level without ligand (relative to sTRSVctl = 100) (log10 (% of sTRSVctl)); ligand: hypoxanthine (xanthine aptamer); higher = less ribozyme self-cleavage, higher mRNA level; settings: HEK293T, reporter: mCherry (pCS4076), ligand present: no
Protocol: as §2

hypoxanthine [4] = variants of: B1; assay: FACS-Seq fitted mean relative fluorescence mCherry/BFP with ligand (log10 relative fluorescence); ligand: hypoxanthine (xanthine aptamer); ligand concentration (+) FACS-Seq: 5 mM; higher = higher reporter protein expression; settings: HEK293T, ligand present: yes
Summary of the method: as §1

Variant | FACS-Seq fitted mean (log10) (hypoxanthine [1]) | normalized RNA/DNA level with ligand (log10) (hypoxanthine [2]) | normalized RNA/DNA level without ligand (log10) (hypoxanthine [3]) | FACS-Seq fitted mean (log10) (hypoxanthine [4])
GCUGUCACCGGUGUAUUACCCUAGUGGUCGACCGGUCUGAUGAGUCUCCAAGUAGACGAAACAGC [CCAAGU] | 0.347 ± 0.027 | 1.94 ± 0.024 | 1.863 ± 0.016 | 0.544 ± 0.032
GCUGUCACCGGUGUAUUACCCUAGUGGUCGACCGGUCUGAUGAGUCUCCAAGCAGACGAAACAGC [CCAAGC] | 0.126 ± 0.14 | 1.938 ± 0.012 | 1.79 ± 0.15 | 0.366 ± 0.074
GCUGUCACCGGUGUAUUACCCUAGUGGUCGACCGGUCUGAUGAGUCUCCAAAUAGACGAAACAGC [CCAAAU] | 0.00231 ± 0.0079 | 1.93 ± 0.0062 | 1.83 ± 0.058 | 0.404 ± 0.042
GCUGUCACCGGUGUAUUACCCUAGUGGUCGACCGGUCUGAUGAGUCUGCAAGAAGACGAAACAGC [GCAAGA] | 0.209 ± 0.025 | 1.94 ± 0.045 | 1.708 ± 0.0095 | 0.332 ± 0.0071
GCUGUCACCGGUGUAUUACCCUAGUGGUCGACCGGUCUGAUGAGUCUUCAAGUAGACGAAACAGC [UCAAGU] | 0.221 ± 0.018 | 1.91 ± 0.0075 | 1.63 ± 0.043 | 0.415 ± 0.046
GCUGUCACCGGUGUAUUACCCUAGUGGUCGACCGGUCUGAUGAGUCUUCAAGAAGACGAAACAGC [UCAAGA] | 0.386 ± 0.04 | 1.92 ± 0.028 | 1.54 ± 0.051 | 0.599 ± 0.074
GCUGUCACCGGUGUAUUACCCUAGUGGUCGACCGGUCUGAUGAGUCUCCAACCAGACGAAACAGC [CCAACC] | 0.551 ± 0.044 | 1.94 ± 0.021 | 1.95 ± 0.054 | 0.584 ± 0.055
GCUGUCACCGGUGUAUUACCCUAGUGGUCGACCGGUCUGAUGAGUCUCCAACUAGACGAAACAGC [CCAACU] | 0.611 ± 0.037 | 2.02 ± 0.025 | 1.945 ± 0.012 | 0.58 ± 0.015
GCUGUCACCGGUGUAUUACCCUAGUGGUCGACCGGUCUGAUGAGUCUACAAGAAGACGAAACAGC [ACAAGA] | 0.164 ± 0.1 | 1.891 ± 0.0031 | 1.65 ± 0.037 | 0.121 ± 0.037
GCUGUCACCGGUGUAUUACCCUAGUGGUCGACCGGUCUGAUGAGUCUACAAGGAGACGAAACAGC [ACAAGG] | -0.00738 ± 0.11 | 1.83 ± 0.065 | 1.26 ± 0.024 | 0.113 ± 0.14
GCUGUCACCGGUGUAUUACCCUAGUGGUCGACCGGUCUGAUGAGUCUACAAGCAGACGAAACAGC [ACAAGC] | 0.743 ± 0.017 | 1.92 ± 0.033 | 1.76 ± 0.015 | 0.863 ± 0.082
GCUGUCACCGGUGUAUUACCCUAGUGGUCGACCGGUCUGAUGAGUCUACAAAGAGACGAAACAGC [ACAAAG] | 0.343 ± 0.016 | 1.901 ± 0.0069 | 1.54 ± 0.028 | 0.696 ± 0.034
GCUGUCACCGGUGUAUUACCCUAGUGGUCGACCGGUCUGAUGAGUCUACAAACAGACGAAACAGC [ACAAAC] | 0.5372 ± 0.0045 | 1.93 ± 0.062 | 1.826 ± 0.017 | 0.517 ± 0.046
GCUGUCACCGGUGUAUUACCCUAGUGGUCGACCGGUCUGAUGAGUCUACAAAUAGACGAAACAGC [ACAAAU] | 0.311 ± 0.091 | 1.89 ± 0.029 | 1.65 ± 0.044 | 0.331 ± 0.014
GCUGUCACCGGUGUAUUACCCUAGUGGUCGACCGGUCUGAUGAGUCUUCAAAGAGACGAAACAGC [UCAAAG] | -0.374 ± 0.059 | 1.92 ± 0.072 | 1.68 ± 0.039 | -0.184 ± 0.025
GCUGUCACCGGUGUAUUACCCUAGUGGUCGACCGGUCUGAUGAGUCUUCAAAUAGACGAAACAGC [UCAAAU] | 0.4822 ± 0.0021 | 1.92 ± 0.02 | 1.77 ± 0.036 | 0.54 ± 0.053
GCUGUCACCGGUGUAUUACCCUAGUGGUCGACCGGUCUGAUGAGUCUUCAACGAGACGAAACAGC [UCAACG] | 0.504 ± 0.15 | 1.918 ± 0.0024 | 1.783 ± 0.015 | 0.585 ± 0.091
GCUGUCACCGGUGUAUUACCCUAGUGGUCGACCGGUCUGAUGAGUCUUCAACAAGACGAAACAGC [UCAACA] | 0.101 ± 0.027 | 1.959 ± 0.018 | 1.84 ± 0.024 | 0.297 ± 0.054
GCUGUCACCGGUGUAUUACCCUAGUGGUCGACCGGUCUGAUGAGUCUGCAAACAGACGAAACAGC [GCAAAC] | 0.411 ± 0.03 | 1.91 ± 0.023 | 1.6 ± 0.036 | 0.455 ± 0.055
GCUGUCACCGGUGUAUUACCCUAGUGGUCGACCGGUCUGAUGAGUCUGCAAAUAGACGAAACAGC [GCAAAU] | -0.00409 ± 0.019 | 1.932 ± 0.0088 | 1.75 ± 0.043 | 0.371 ± 0.013
GCUGUCACCGGUGUAUUACCCUAGUGGUCGACCGGUCUGAUGAGUCUGCAACAAGACGAAACAGC [GCAACA] | -0.108 ± 0.043 | 1.96 ± 0.027 | 1.85 ± 0.059 | -0.0215 ± 0.13
